Test results taken from patent US20060193851A1.

Test system: 10C12 F(ab')2-leucine zipper

factor X
rate of FX activation by relipidated TF(1-243):FVIIa after incubating 10C12 with the substrate FX: 10C12 at up to 200 µg/ml did not inhibit FXa generation in either experimental setting
